According to the supplement of paper PMC10899765:

Key:
Conditions in all cases: 20 nM; 72 h
[1] = tested on: MCF10A; assay: percent viability (nuclei count relative to siNT); higher = more viable cells
Description: (§1)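 After 72 h, cells were fixed and stained with Hoechst and anti-fibrillarin, and nucleoli per nucleus were counted with CellProfiler. Values are plate-adjusted percent effect for the one-nucleolus and 5+ nucleoli phenotypes, normalised to siNT (0%) and to the positive controls siNOL11 or siKIF11 (100%), as the mean of biological triplicates. Percent viability is the nuclei count relative to siNT.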

[2] = tested on: MCF10A; assay: one-nucleolus phenotype percent effect (relative to siNT 0% and siNOL11 100%); higher = more cells with one nucleolus (ribosome biogenesis inhibition)
Description: as §1

[3] = tested on: MCF10A; assay: 5+ nucleoli phenotype percent effect (relative to siNT 0% and siKIF11 100%); higher = more cells with five or more nucleoli
Description: as §1

## GAGCUUGGUCUGUAGCGGUU [hsa-miR-4453]
[1]
  percent viability: 9.97%
[2]
  one-nucleolus phenotype percent effect: 33.6%
[3]
  5+ nucleoli phenotype percent effect: -29.1%

## AGCCUUCCAGGAGAAAUGGAGA [hsa-miR-5581-5p]
[1]
  percent viability: 14.3%
[2]
  one-nucleolus phenotype percent effect: 20.5%
[3]
  5+ nucleoli phenotype percent effect: -16.7%

## UAUCCAGCUUGUUACUAUAUGC [hsa-miR-5586-5p]
[1]
  percent viability: 47.2%
[2]
  one-nucleolus phenotype percent effect: -0.119%
[3]
  5+ nucleoli phenotype percent effect: 7.77%

## UUGAACUGUUAAGAACCACUGGA [hsa-miR-203b-3p]
[1]
  percent viability: 36.7%
[2]
  one-nucleolus phenotype percent effect: 29.5%
[3]
  5+ nucleoli phenotype percent effect: -29.1%

## AUAGUGGUUGUGAAUUUACCUU [hsa-miR-4460]
[1]
  percent viability: 33.9%
[2]
  one-nucleolus phenotype percent effect: 11.2%
[3]
  5+ nucleoli phenotype percent effect: -22.1%

## UAGGCCUUUAGAUCACUUAAA [hsa-miR-1245b-5p]
[1]
  percent viability: 21.5%
[2]
  one-nucleolus phenotype percent effect: 19.2%
[3]
  5+ nucleoli phenotype percent effect: -5.02%

## GUGGACCUGGCUGGGAC [hsa-miR-4535]
[1]
  percent viability: 65.5%
[2]
  one-nucleolus phenotype percent effect: -11%
[3]
  5+ nucleoli phenotype percent effect: 17.4%

## AACUCUGACCCCUUAGGUUGAU [hsa-miR-4714-5p]
[1]
  percent viability: 41.1%
[2]
  one-nucleolus phenotype percent effect: -5.26%
[3]
  5+ nucleoli phenotype percent effect: -16.1%

## GUUCUGUUAACCCAUCCCCUCA [hsa-miR-4652-3p]
[1]
  percent viability: 28.2%
[2]
  one-nucleolus phenotype percent effect: 16%
[3]
  5+ nucleoli phenotype percent effect: -42.7%

## AGCUCUGCUGCUCACUGGCAGU [hsa-miR-3194-3p]
[1]
  percent viability: 22.1%
[2]
  one-nucleolus phenotype percent effect: 1.77%
[3]
  5+ nucleoli phenotype percent effect: 6.75%

## UCCAGGCAGGAGCCGGACUGGA [hsa-miR-4673]
[1]
  percent viability: 62.5%
[2]
  one-nucleolus phenotype percent effect: -17.9%
[3]
  5+ nucleoli phenotype percent effect: 14.9%

## UGAUUGUCCAAACGCAAUUCU [hsa-miR-219-5p]
[1]
  percent viability: 82.1%
[2]
  one-nucleolus phenotype percent effect: -9.06%
[3]
  5+ nucleoli phenotype percent effect: 14.5%

## AGAGAAGAAGAUCAGCCUGCA [hsa-miR-1253]
[1]
  percent viability: 84.6%
[2]
  one-nucleolus phenotype percent effect: -16.8%
[3]
  5+ nucleoli phenotype percent effect: 37.9%

## GCAUGUGAUGAAGCAAAUCAGU [hsa-miR-3607-5p]
[1]
  percent viability: 52.8%
[2]
  one-nucleolus phenotype percent effect: -2.14%
[3]
  5+ nucleoli phenotype percent effect: -8.33%

## CAACGGAAUCCCAAAAGCAGCUG [hsa-miR-191-5p]
[1]
  percent viability: 29.2%
[2]
  one-nucleolus phenotype percent effect: 11.8%
[3]
  5+ nucleoli phenotype percent effect: 2.25%

## AUGGUACCCUGGCAUACUGAGU [hsa-miR-1263]
[1]
  percent viability: 24.8%
[2]
  one-nucleolus phenotype percent effect: 49.6%
[3]
  5+ nucleoli phenotype percent effect: -22.2%

## CCUCACCCAGCUCUCUGGCCCUCU [hsa-miR-6862-3p]
[1]
  percent viability: 72%
[2]
  one-nucleolus phenotype percent effect: -26.5%
[3]
  5+ nucleoli phenotype percent effect: 15.4%

## CAAAGAAUUCUCCUUUUGGGCU [hsa-miR-186-5p]
[1]
  percent viability: 59.3%
[2]
  one-nucleolus phenotype percent effect: -14.6%
[3]
  5+ nucleoli phenotype percent effect: 42.9%

## UGAGGAUGGAUAGCAAGGAAGCC [hsa-miR-3605-5p]
[1]
  percent viability: 69.7%
[2]
  one-nucleolus phenotype percent effect: -3.45%
[3]
  5+ nucleoli phenotype percent effect: 12%

## UGUAGGAACAGUUGAAUUUUGGCU [hsa-miR-8065]
[1]
  percent viability: 58.9%
[2]
  one-nucleolus phenotype percent effect: -24.6%
[3]
  5+ nucleoli phenotype percent effect: 19.8%

## GGUUCCCUCUCCAAAUGUGUCU [hsa-miR-642b-5p]
[1]
  percent viability: 44.4%
[2]
  one-nucleolus phenotype percent effect: 11.8%
[3]
  5+ nucleoli phenotype percent effect: 21.2%

## AAAAGUAAUUGUGGUUUUUGCC [hsa-miR-548d-5p]
[1]
  percent viability: 95.4%
[2]
  one-nucleolus phenotype percent effect: -15.4%
[3]
  5+ nucleoli phenotype percent effect: 49.4%

## UGCCCUCCUUUCUUCCCUC [hsa-miR-4290]
[1]
  percent viability: 21.6%
[2]
  one-nucleolus phenotype percent effect: -1.5%
[3]
  5+ nucleoli phenotype percent effect: -8.55%

## CUGCCUGUUCUUCCACUCCAG [hsa-miR-6514-3p]
[1]
  percent viability: 9.75%
[2]
  one-nucleolus phenotype percent effect: 59.9%
[3]
  5+ nucleoli phenotype percent effect: -62.1%

## AGACUGACGGCUGGAGGCCCAU [hsa-miR-4513]
[1]
  percent viability: 43.7%
[2]
  one-nucleolus phenotype percent effect: -13.8%
[3]
  5+ nucleoli phenotype percent effect: 21.1%

## AGGGACGGGACGCGGUGCAGUG [hsa-miR-92b-5p]
[1]
  percent viability: 75.4%
[2]
  one-nucleolus phenotype percent effect: 2.12%
[3]
  5+ nucleoli phenotype percent effect: 34.3%

## UAGUGCAAUAUUGCUUAUAGGGU [hsa-miR-454-3p]
[1]
  percent viability: 121%
[2]
  one-nucleolus phenotype percent effect: -20.8%
[3]
  5+ nucleoli phenotype percent effect: 54.6%

## UAGGCAGUGUCAUUAGCUGAUUG [hsa-miR-34b-5p]
[1]
  percent viability: 17.6%
[2]
  one-nucleolus phenotype percent effect: 35.6%
[3]
  5+ nucleoli phenotype percent effect: -23.8%

## UUCACCACCUUCUCCACCCAGC [hsa-miR-197-3p]
[1]
  percent viability: 28.8%
[2]
  one-nucleolus phenotype percent effect: 10.8%
[3]
  5+ nucleoli phenotype percent effect: -10%

## UAGGGGAAAAGUCCUGAUCCGG [hsa-miR-6783-5p]
[1]
  percent viability: 78.4%
[2]
  one-nucleolus phenotype percent effect: -20.2%
[3]
  5+ nucleoli phenotype percent effect: 18.2%

## AAAAGCAUCAGGAAGUACCCA [hsa-miR-4422]
[1]
  percent viability: 58.8%
[2]
  one-nucleolus phenotype percent effect: -9.65%
[3]
  5+ nucleoli phenotype percent effect: 2.92%

## AUAGUCCGAGUAACGUCGGGGC [hsa-miR-6723-5p]
[1]
  percent viability: 54%
[2]
  one-nucleolus phenotype percent effect: 16.5%
[3]
  5+ nucleoli phenotype percent effect: -28.9%

## UGGGCUGGCAGGGCAAGUGCUG [hsa-miR-4498]
[1]
  percent viability: 9.7%
[2]
  one-nucleolus phenotype percent effect: 38.7%
[3]
  5+ nucleoli phenotype percent effect: -6.13%

## GGUCUAGGCCCGGUGAGAGACUC [hsa-miR-8078]
[1]
  percent viability: 21%
[2]
  one-nucleolus phenotype percent effect: -3.5%
[3]
  5+ nucleoli phenotype percent effect: 10%

## CUCUCUGGCCGUCUACCUUCCA [hsa-miR-3191-5p]
[1]
  percent viability: 31.4%
[2]
  one-nucleolus phenotype percent effect: 46.1%
[3]
  5+ nucleoli phenotype percent effect: -62.4%

## AGGGGGGCACUGCGCAAGCAAAGCC [hsa-miR-6885-5p]
[1]
  percent viability: 42.5%
[2]
  one-nucleolus phenotype percent effect: 16.6%
[3]
  5+ nucleoli phenotype percent effect: -29.8%

## CCUCGGUACUGGAAAGGGGUA [hsa-miR-8088]
[1]
  percent viability: 108%
[2]
  one-nucleolus phenotype percent effect: -9.43%
[3]
  5+ nucleoli phenotype percent effect: 15.8%

## AAAGUGCAUCCUUUUAGAGUGU [hsa-miR-519a-3p]
[1]
  percent viability: 160%
[2]
  one-nucleolus phenotype percent effect: -15.2%
[3]
  5+ nucleoli phenotype percent effect: 44.1%

## AGAAGGAAAUUGAAUUCAUUUA [hsa-miR-1252]
[1]
  percent viability: 148%
[2]
  one-nucleolus phenotype percent effect: -13.6%
[3]
  5+ nucleoli phenotype percent effect: 32.3%

## CAGGGAGGCGCUCACUCUCUGCU [hsa-miR-4756-5p]
[1]
  percent viability: 158%
[2]
  one-nucleolus phenotype percent effect: -3.87%
[3]
  5+ nucleoli phenotype percent effect: 41%

## GAAAUCAAGCGUGGGUGAGACC [hsa-miR-551b-5p]
[1]
  percent viability: 57.5%
[2]
  one-nucleolus phenotype percent effect: -15.5%
[3]
  5+ nucleoli phenotype percent effect: 40.3%

## GGCCUUGUUCCUGUCCCCA [hsa-miR-4312]
[1]
  percent viability: 22.7%
[2]
  one-nucleolus phenotype percent effect: 56%
[3]
  5+ nucleoli phenotype percent effect: -25.8%

## AAUAUAACACAGAUGGCCUGU [hsa-miR-410]
[1]
  percent viability: 164%
[2]
  one-nucleolus phenotype percent effect: -9.74%
[3]
  5+ nucleoli phenotype percent effect: 27.3%

## UUCCUGGGCUUCUCCUCUGUAG [hsa-miR-6783-3p]
[1]
  percent viability: 88.9%
[2]
  one-nucleolus phenotype percent effect: -1.45%
[3]
  5+ nucleoli phenotype percent effect: 7.93%

## UAUGUGACCUCGGAUGAAUCA [hsa-miR-4501]
[1]
  percent viability: 19.8%
[2]
  one-nucleolus phenotype percent effect: 40.8%
[3]
  5+ nucleoli phenotype percent effect: -23.6%

## CUGGCCCUCUCUGCCCUUCCGU [hsa-miR-328]
[1]
  percent viability: 64%
[2]
  one-nucleolus phenotype percent effect: -8.63%
[3]
  5+ nucleoli phenotype percent effect: 47.4%

## AGACCCUGGUCUGCACUCUAUC [hsa-miR-504]
[1]
  percent viability: 64.6%
[2]
  one-nucleolus phenotype percent effect: -10.9%
[3]
  5+ nucleoli phenotype percent effect: 3.4%

## CUAUACAACCUACUGCCUUCCC [hsa-let-7b-3p]
[1]
  percent viability: 32.4%
[2]
  one-nucleolus phenotype percent effect: 10.1%
[3]
  5+ nucleoli phenotype percent effect: -18.8%

## AGGCACCAGCCAGGCAUUGCUCAGC [hsa-miR-593-5p]
[1]
  percent viability: 40.2%
[2]
  one-nucleolus phenotype percent effect: 12.3%
[3]
  5+ nucleoli phenotype percent effect: -0.886%

## UCAAAAUGUAGAGGAAGACCCCA [hsa-miR-4698]
[1]
  percent viability: 127%
[2]
  one-nucleolus phenotype percent effect: -18.4%
[3]
  5+ nucleoli phenotype percent effect: 21.6%

## CAAAAACCGCAAUUACUUUUGCA [hsa-miR-548z]
[1]
  percent viability: 36%
[2]
  one-nucleolus phenotype percent effect: 0.602%
[3]
  5+ nucleoli phenotype percent effect: -14.9%

## GGUGGUUGAGGCUGCAGUAAGU [hsa-miR-1273g-5p]
[1]
  percent viability: 49.2%
[2]
  one-nucleolus phenotype percent effect: -13.4%
[3]
  5+ nucleoli phenotype percent effect: 22.4%

## UACUGCAGACAGUGGCAAUCA [hsa-miR-509-5p]
[1]
  percent viability: 48.8%
[2]
  one-nucleolus phenotype percent effect: 7.14%
[3]
  5+ nucleoli phenotype percent effect: 5.43%

## UGAGAUGAAGCACUGUAGCUC [hsa-miR-143-3p]
[1]
  percent viability: 47.9%
[2]
  one-nucleolus phenotype percent effect: -0.991%
[3]
  5+ nucleoli phenotype percent effect: -1.77%

## GAGGCUGAGCUGAGGAG [hsa-miR-4478]
[1]
  percent viability: 22.9%
[2]
  one-nucleolus phenotype percent effect: 35.1%
[3]
  5+ nucleoli phenotype percent effect: -17.6%

## GUUCCUGCUGAACUGAGCCAG [hsa-miR-3074-5p]
[1]
  percent viability: 42.2%
[2]
  one-nucleolus phenotype percent effect: -7.07%
[3]
  5+ nucleoli phenotype percent effect: -17.7%

## AAAGGUAAUUGUGGUUUCUGC [hsa-miR-548ag]
[1]
  percent viability: 75.7%
[2]
  one-nucleolus phenotype percent effect: -6.82%
[3]
  5+ nucleoli phenotype percent effect: 4.63%

## UUUCCUGUCCUCCAACCAGACC [hsa-miR-7152-5p]
[1]
  percent viability: 26.5%
[2]
  one-nucleolus phenotype percent effect: 11.7%
[3]
  5+ nucleoli phenotype percent effect: -28.9%

## GACACUAGGCAUGUGAGUGAUU [hsa-miR-4704-5p]
[1]
  percent viability: 65%
[2]
  one-nucleolus phenotype percent effect: -20.2%
[3]
  5+ nucleoli phenotype percent effect: 0.429%
